Entries after “also recorded” stand apart in the source; their conditions may differ.
Columns and labels:
CRBN [1] = molecular target: T1, CRBN (Homo sapiens, UniProt Q96SW2); conditions: in vitro; cited from earlier work
CRBN [2] = molecular target: T1, CRBN; experiment: Pomalidomide-dependent degradation of IKZF3 degron with A153 substitutions; type: cell-based; design: endogenous in cells; conditions: wtCRBN-expressing cells, pomalidomide dose-response
Protocol: (§1) Transduced cells were incubated with a range of Pomalidomide concentrations or DMSO for 20 hours. Cells were analyzed by flow cytometry for eGFP and mCherry fluorescence. 1000 mCherry+ cells were analyzed per sample, and the geometric mean of the per-cell eGFP/mCherry ratio was calculated in Flowjo. In Pomalidomide dose titration studies, the EC50 was calculated by non-linear regression in Prism. Experiments were performed in triplicate. In some cases cell surface protein expression was assayed in parallel with the above reporter assay; cells were stained with anti-CD28-BV421 antibody (BD Biosciences 562613) at a 1:50 dilution in FACS buffer (PBS+2% FCS+2 mM EDTA) for 10 minutes on ice. Cells were washed with FACS buffer and analyzed by flow cytometry.

K562-CD19 cells = experiment: Jurkat degron-tagged CAR-T co-culture with K562-CD19 (Myc-tag, CD69, IL2); type: cell-based, human
Protocol: 100,000 CAR-T Jurkat cells were co-cultured with 20,000 K562 or K562-CD19 cells for 18 hours.
Jurkat T cells lentivirally transduced with the genetic components described herein were co-cultured for 24 hours with K562 cells (human blast crisis Chronic Myeloid Leukemia cell line) lentivirally transduced with an expression vector encoding CD19 (referred to as K562-CD19) (G&P Biosciences LTV-CD19) or isogenic K562 cells lacking the target antigen. Both K562-CD19 and K562 cell lines were engineered to express homogenous high level mCherry expression via transduction with the Jenner lentivirus, allowing discrimination of K562 and Jurkat cells by flow cytometry. Unless otherwise specified, 50,000 Jurkat cells were co-cultured with 10,000 K562 cells in 110 ul of RPMI supplemented with Pen/Strep and 10% fetal calf serum for 24 hours. The supernatant was then harvested for cytokine secretion assays and IL2 concentration in the supernatant was performed according to manufacturer specifications (BD Biosciences 555190). The cells were analyzed by flow cytometry. Expression of the early activation marker CD69 (BioLegend 310910), myc tagged cell surface proteins (Cell Signaling Technologies 2233S), and fluorescent protein markers were assessed.

CRL4^CRBN = molecular target: T2, CRL4^CRBN (Homo sapiens, UniProt Q96SW2); experiment: GFP/mCherry reporter assay for degradation of degron-eGFP fusion proteins in Jurkat T cells; type: cell-based
T2 construct: endogenous in cells; host or cells: Jurkat T cells (ligase endogenous; degron-eGFP reporters lentivirally transduced)
Protocol: First, the FMC63 anti-CD19 scFv was exchanged for the CD28 Ig-like V-type extracellular domain. […] Experiments were performed in triplicate.
as §1, with “Transduced cells were incubated with a range of Pomalidomide concentrations or DMSO for 20 hours.” left out
First, the FMC63 anti-CD19 scFv was exchanged for the CD28 Ig-like V-type extracellular domain.

IKZF3aa130-189 = experiment: BRET assay, dimerization of IKZF3aa130-189 with CRBN or minCRBN variants; type: cell-based, human; conditions: pomalidomide dose-response
Protocol: Specifically, CRBN deletion variants were engineered to retain binding to Pom/IKZF3 but not DDB1/CUL4. Four deletion variants were generated in CRBN that removed the DDB1-binding domain, as shown in the middle image (NTD is the N-terminal domain; LLP1 is Lon-like protease domain 1 (split into LLP1-N and LLP1-C regions); TBD is the Thalidomide binding domain). At middle, BRET assays were performed upon 293T cells harboring bialleleic CRISPR/Cas9 disruption of endogenous CRBN (293T-CRBNΔe5), to assess dimerization between IKZF3aa130-189 and CRBN or minCRBN variants (dose-response data shown are CRBN, minCRBN1, minCRBN2, minCRBN3 and minCRBN4). […] Pomalidomide-dependent dimerization was observed between IKZF3aa130-189-HaloTag and CRBN-Nanoluciferase (NLuc) or minCRBN2-4-NLuc. […] 1 day after transfection, cells were exposed to 1 μM pomalidomide for the number of hours indicated and GFP and mCherry fluorescence was measured by flow cytometry (eGFPmCherry levels were detected as 0.5 or less for the CRBN trace).
(§2) 293T cells were co-transfected with pFC14K and pFC32K plasmids expressing IKZF3-HaloTag and CRBN-Nanoluciferase fusion proteins and incubated overnight. Cells were then trypsinized and seeded into 96 well plates, at 40,000 cells per well. The BRET assay was performed per manufacturer's instructions (Promega™). In brief, cells were incubated for 2 hours with varying concentrations of Pomalidomide or DMSO, 10 μM MG132, and 100 nM HaloTag NanoBRET 618 Ligand. NanoBRET Nano-Glo substrate was added and donor (460 nm) and acceptor (618 nm) emission were measured within 10 minutes (EnVision, Perkin Elmer). Mean corrected milliBRET units (mBU) was calculated.
Tested forms of minimal CRBN included minCRBN1, minCRBN2, minCRBN3 and minCRBN4, each of which were aligned against the wild-type CRBN (FIG. 1; all tested minCRBNs lacked the DDB1-binding domain—minCRBN1 comprised amino acids 339-442 of CRBN (including the TBD); minCRBN2 comprised amino acids 317-442 of CRBN (including TBD and an N-terminal extended sequence relative to minCRBN1); minCRBN3 included all CRBN sequence other than amino acids 194-207 (deletion of the DDB1-binding domain); and minCRBN4 included all sequences other than amino acids 187-260 (deletion of the DDB1-binding domain)).

IKZF3 degron-GFP = experiment: eGFP/mCherry reporter, IKZF3 degron degradation with co-transfected CRBN or minCRBN1-4 in 293T-CRBNΔe5 cells; type: cell-based, human; conditions: 1 μM pomalidomide, time course in hours, 293T-CRBNΔe5 cells
Protocol: Specifically, CRBN deletion variants were engineered to retain binding to Pom/IKZF3 but not DDB1/CUL4. Four deletion variants were generated in CRBN that removed the DDB1-binding domain, as shown in the middle image (NTD is the N-terminal domain; LLP1 is Lon-like protease domain 1 (split into LLP1-N and LLP1-C regions); TBD is the Thalidomide binding domain). At middle, BRET assays were performed upon 293T cells harboring bialleleic CRISPR/Cas9 disruption of endogenous CRBN (293T-CRBNΔe5), to assess dimerization between IKZF3aa130-189 and CRBN or minCRBN variants (dose-response data shown are CRBN, minCRBN1, minCRBN2, minCRBN3 and minCRBN4). […] 1 day after transfection, cells were exposed to 1 μM pomalidomide for the number of hours indicated and GFP and mCherry fluorescence was measured by flow cytometry (eGFPmCherry levels were detected as 0.5 or less for the CRBN trace).
Transduced cells were incubated with a range of Pomalidomide concentrations or DMSO for 20 hours. Cells were analyzed by flow cytometry for eGFP and mCherry fluorescence. 1000 mCherry+ cells were analyzed per sample, and the geometric mean of the per-cell eGFP/mCherry ratio was calculated in Flowjo. In Pomalidomide dose titration studies, the EC50 was calculated by non-linear regression in Prism. […] Cells were washed with FACS buffer and analyzed by flow cytometry.

IKZF3 A153M = experiment: BRET, IKZF3 A153 substitutions with CRBN, CRBN V388A or CRBN I371A; type: cell-based, human; conditions: 293T cells, 2 hours
Protocol: as §2

IKZF3aa130-189, sequence (Q9UKT9 130-189 limits assumed, one chain of several): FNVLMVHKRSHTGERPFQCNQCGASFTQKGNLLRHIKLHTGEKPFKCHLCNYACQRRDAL
IKZF3 A153M, sequence (Q9UKT9 130-189 A153M limits assumed): as the sequence (Q9UKT9 130-189 limits assumed, one chain of several) above, with A24M counted along it
T2 sequence (Q16531 whole entry partner, one chain of several, the tested form may be a part): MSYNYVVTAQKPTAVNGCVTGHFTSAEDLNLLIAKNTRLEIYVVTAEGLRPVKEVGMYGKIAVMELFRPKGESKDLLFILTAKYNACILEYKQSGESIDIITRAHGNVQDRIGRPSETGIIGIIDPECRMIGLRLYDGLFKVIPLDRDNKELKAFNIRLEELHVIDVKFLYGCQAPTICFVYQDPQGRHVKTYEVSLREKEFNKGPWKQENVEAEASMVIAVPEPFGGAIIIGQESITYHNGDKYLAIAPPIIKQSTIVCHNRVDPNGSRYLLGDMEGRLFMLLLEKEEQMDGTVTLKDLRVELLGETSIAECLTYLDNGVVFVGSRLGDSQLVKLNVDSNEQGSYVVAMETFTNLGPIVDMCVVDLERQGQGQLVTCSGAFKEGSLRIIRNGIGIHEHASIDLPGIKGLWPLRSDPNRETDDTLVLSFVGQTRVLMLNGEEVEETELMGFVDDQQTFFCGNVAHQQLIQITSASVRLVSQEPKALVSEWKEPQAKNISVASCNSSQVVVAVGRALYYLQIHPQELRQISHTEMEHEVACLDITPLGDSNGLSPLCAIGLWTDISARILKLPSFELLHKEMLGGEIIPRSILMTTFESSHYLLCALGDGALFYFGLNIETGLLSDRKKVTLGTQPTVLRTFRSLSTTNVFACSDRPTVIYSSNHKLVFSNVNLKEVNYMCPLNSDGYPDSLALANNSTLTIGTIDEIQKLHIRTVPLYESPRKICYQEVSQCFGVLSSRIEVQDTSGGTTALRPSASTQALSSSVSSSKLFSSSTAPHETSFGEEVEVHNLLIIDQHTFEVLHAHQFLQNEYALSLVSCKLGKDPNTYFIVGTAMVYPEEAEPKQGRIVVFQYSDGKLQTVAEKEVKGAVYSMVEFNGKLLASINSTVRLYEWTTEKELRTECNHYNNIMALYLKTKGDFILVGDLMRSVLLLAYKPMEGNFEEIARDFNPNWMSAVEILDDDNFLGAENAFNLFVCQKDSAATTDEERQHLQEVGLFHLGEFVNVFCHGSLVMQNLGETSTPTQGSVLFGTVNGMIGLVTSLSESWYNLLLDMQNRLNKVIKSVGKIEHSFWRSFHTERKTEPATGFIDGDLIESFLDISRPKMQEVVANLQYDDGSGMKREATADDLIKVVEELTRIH
T2 sequence (Q13619 whole entry partner, one chain of several, the tested form may be a part): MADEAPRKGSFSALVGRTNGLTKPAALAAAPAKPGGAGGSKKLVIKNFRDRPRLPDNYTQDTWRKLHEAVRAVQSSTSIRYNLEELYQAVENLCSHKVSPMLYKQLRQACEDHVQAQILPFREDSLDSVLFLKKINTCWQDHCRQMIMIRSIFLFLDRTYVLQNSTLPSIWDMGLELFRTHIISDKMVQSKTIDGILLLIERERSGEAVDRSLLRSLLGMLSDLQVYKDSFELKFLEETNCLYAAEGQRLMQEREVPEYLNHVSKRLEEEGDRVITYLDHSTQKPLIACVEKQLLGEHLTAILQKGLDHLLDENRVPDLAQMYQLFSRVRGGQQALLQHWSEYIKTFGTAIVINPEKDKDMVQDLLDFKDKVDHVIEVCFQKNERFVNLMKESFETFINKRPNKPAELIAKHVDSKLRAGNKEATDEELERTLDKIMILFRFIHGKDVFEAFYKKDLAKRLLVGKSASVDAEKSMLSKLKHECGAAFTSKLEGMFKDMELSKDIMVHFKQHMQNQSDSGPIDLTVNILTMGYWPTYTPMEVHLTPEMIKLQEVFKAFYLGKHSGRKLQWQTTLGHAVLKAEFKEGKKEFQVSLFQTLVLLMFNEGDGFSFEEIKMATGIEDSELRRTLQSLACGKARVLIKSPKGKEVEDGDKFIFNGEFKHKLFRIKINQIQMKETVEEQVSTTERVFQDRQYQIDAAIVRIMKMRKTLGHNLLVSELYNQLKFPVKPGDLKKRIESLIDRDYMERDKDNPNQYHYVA
T2 sequence (P62877 whole entry partner, one chain of several, the tested form may be a part): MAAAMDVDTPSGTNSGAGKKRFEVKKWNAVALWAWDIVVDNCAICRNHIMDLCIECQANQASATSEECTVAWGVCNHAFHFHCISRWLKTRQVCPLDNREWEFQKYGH
T2 sequence (Q9UKT9 130-189 partner limits assumed, one chain of several): as the sequence (Q9UKT9 130-189 limits assumed, one chain of several) above
IKZF3 degron-GFP, sequence (Q9UKT9 130-189 limits assumed, one chain of several): as above

Nc1cccc2c1C(=O)N(C1CCC(=O)NC1=O)C2=O (stereo not shown) [pomalidomide, Pomalidomide]
binding to CRBN (CRBN [1]): binds to CRBN in vitro

O=C1CCC(N2C(=O)c3ccccc3C2=O)C(=O)N1 (stereo not shown) [thalidomide, Thalidomide]
binding to CRBN (CRBN [1]): binds to CRBN in vitro

A153D: IKZF3 degron polypeptide, amino acids 130-189 A153D, SEQ ID NO: 43
pomalidomide-dependent degradation of substituted IKZF3 degron (CRBN [2]): most effective at disrupting pomalidomide-dependent IKZF3 degron degradation

IKZF3 A153M: IKZF3 degron polypeptide, amino acids 130-189 A153M, SEQ ID NO: 36
pomalidomide-dependent degradation of substituted IKZF3 degron (CRBN [2]): disrupted binding and degradation by CRBN

d913: Hybrid degron, IKZF3 aa 130-145 + ZFP91 aa 400-410 + IKZF3 aa 157-189, SEQ ID NO: 95 (FNVLMVHKRSHTGERPLQCEICGFTCRQKGNLLRHIKLHTGEKPFKCHLCNYACQRRDAL)
drug control over CAR protein expression, activation and IL2 secretion (K562-CD19 cells; Jurkat CAR-T with K562 or K562-CD19, 18 hours): more robust control over CAR protein expression, activation, and cytokine secretion than the endogenous IKZF3 degron | cell surface CAR expression (anti-Myc tag) (K562-CD19 cells; Jurkat T cells, no drug (tonic)): lower tonic CAR cell surface protein abundance versus the control CAR

degron: IKZF3 degron polypeptide, amino acids 130-189, SEQ ID NO: 5, as eGFP fusion
degradation of degron-eGFP protein (CRL4^CRBN; by 1 hour after addition of 1 μM pomalidomide): ~90% | EC50 (CRL4^CRBN; nM pomalidomide, Jurkat T cells): 0.4 nM

B1: CRBN: Native Homo sapiens CRBN polypeptide, SEQ ID NO: 6; positive control (protein, listed as Homo sapiens)
chain: MAGEGDQQDAAHNMGNHLPLLPAESEEEDEMEVEDQDSKEAKKPNIINFDTSLPTSHTYLGADMEEFHGRTLHDDDSCQVIPVLPQVMMILIPGQTLPLQLFHPQEVSMVRNLIQKDRTFAVLAYSNVQEREAQFGTTAEIYAYREEQDFGIEIVKVKAIGRQRFKVLELRTQSDGIQQAKVQILPECVLPSTMSAVQLESLNKCQIFPSKPVSREDQCSYKWWQKYQKRKFHCANLTSWPRWLYSLYDAETLMDRIKKQLREWDENLKDDSLPSNPIDFSYRVAACLPIDDVLRIQLLKIGSAIQRLRCELDIMNKCTSLCCKQCQETEITTKNEIFSLSLCGPMAAYVNPHGYVHETLTVYKACNLNLIGRPSTEHSWFPGYAWTVAQCKICASHIGWKFTATKKDMSPQKFWGLTRSALLPTIPDTEDEISPDKVILCL
pomalidomide-dependent dimerization with IKZF3 degron (mBU) (IKZF3aa130-189): pomalidomide-dependent interactions | eGFP/mCherry level of IKZF3 degron-GFP reporter (IKZF3 degron-GFP): ≤ 0.5 | eGFP/mCherry level of IKZF3 degron-GFP reporter (IKZF3 degron-GFP; listed as wild-type CRBN): successfully promoted degradation of the IKZF3 degron

B2: CRBN V388A: CRBN polypeptide with V388A substitution (protein, UniProt Q96SW2 1-442, looked up, variant V388A)
Protein cereblon: MAGEGDQQDAAHNMGNHLPLLPAESEEEDEMEVEDQDSKEAKKPNIINFDTSLPTSHTYLGADMEEFHGRTLHDDDSCQVIPVLPQVMMILIPGQTLPLQLFHPQEVSMVRNLIQKDRTFAVLAYSNVQEREAQFGTTAEIYAYREEQDFGIEIVKVKAIGRQRFKVLELRTQSDGIQQAKVQILPECVLPSTMSAVQLESLNKCQIFPSKPVSREDQCSYKWWQKYQKRKFHCANLTSWPRWLYSLYDAETLMDRIKKQLREWDENLKDDSLPSNPIDFSYRVAACLPIDDVLRIQLLKIGSAIQRLRCELDIMNKCTSLCCKQCQETEITTKNEIFSLSLCGPMAAYVNPHGYVHETLTVYKACNLNLIGRPSTEHSWFPGYAWTAAQCKICASHIGWKFTATKKDMSPQKFWGLTRSALLPTIPDTEDEISPDKVILCL
pomalidomide-dependent binding with IKZF3 A153M (IKZF3 A153M; 10 μM MG132, 1 μM pomalidomide and dose-response): restored binding affinity with IKZF3 A153M; also recorded: greatest restoration of pomalidomide-dependent binding | mBU fold change at 1 μM Pomalidomide/DMSO (IKZF3 A153M; 10 μM MG132, mutant versus wild type CRBN): increased the mBU fold change versus wild type CRBN

B3: minCRBN2: Minimal CRBN, amino acids 317-442 of CRBN, SEQ ID NO: 2 (protein)
chain: CTSLCCKQCQETEITTKNEIFSLSLCGPMAAYVNPHGYVHETLTVYKACNLNLIGRPSTEHSWFPGYAWTVAQCKICASHIGWKFTATKKDMSPQKFWGLTRSALLPTIPDTEDEISPDKVILCL
pomalidomide-dependent dimerization with IKZF3 degron (mBU) (IKZF3aa130-189): pomalidomide-dependent interactions

B4: minCRBN4: All CRBN sequences other than amino acids 187-260 (deletion of the DDB1-binding domain), SEQ ID NO: 4 (protein)
chain: MAGEGDQQDAAHNMGNHLPLLPESEEEDEMEVEDQDSKEAKKPNIINFDTSLPTSHTYLGADMEEFHGRTLHDDDSCQVIPVLPQVMMILIPGQTLPLQLFHPQEVSMVRNLIQKDRTFAVLAYSNVQEREAQFGTTAEIYAYREEQDFGIEIVKVKAIGRQRFKVLELRTQSDGIQQAKVQILPLREWDENLKDDSLPSNPIDFSYRVAACLPIDDVLRIQLLKIGSAIQRLRCELDIMNKCTSLCCKQCQETEITTKNEIFSLSLCGPMAAYVNPHGYVHETLTVYKACNLNLIGRPSTEHSWFPGYAWTVAQCKICASHIGWKFTATKKDMSPQKFWGLTRSALLPTIPDTEDEISPDKVILCL
pomalidomide-dependent dimerization with IKZF3 degron (mBU) (IKZF3aa130-189): pomalidomide-dependent interactions

B5: minCRBN1: Minimal CRBN, amino acids 339-442 of CRBN (including the TBD), SEQ ID NO: 1 (protein)
chain: SLSLCGPMAAYVNPHGYVHETLTVYKACNLNLIGRPSTEHSWFPGYAWTVAQCKICASHIGWKFTATKKDMSPQKFWGLTRSALLPTIPDTEDEISPDKVILCL
pomalidomide-dependent dimerization with IKZF3 degron (mBU) (IKZF3aa130-189): dose-dependence was only not observed

Source: patent US12049482B2, “Molecular switch-mediated control of engineered cells” (THE GENERAL HOSPITAL CORPORATION, priority 2017, dated 2024)
